The target of one assay is T1, CD51 (human, UniProt P06756 31-1048).
T1 construct: whole, on cells; Co-precipitated with CD61 by antibody #33 from THP-1 cells; ruled out as the antigen by double staining of PBMCs; also called CD51 (112 kDa)
The assay can be described thus: flow cytometry, PBMCs double-stained with antibody #33 plus secondary antibody and PE-labeled CD51 antibody. As for the experimental part:
A flow cytometry was performed to determine which of CD51 and CD61, listed as candidate antigen molecules for antibody #33, is the antigen for antibody #33. After PBMCs were stained with antibody #33 and a secondary antibody, they were reacted with a PE-labeled CD51 antibody (BC) or a PE-labeled CD61 antibody (SZ21, BC) at 4° C. for 30 minutes and double-stained, after which flow cytometry was performed.
In general terms: Flow cytometry measures light scatter and fluorescence of single cells or particles in a stream.

The target in the next assay is T2, human CD61 (human, UniProt P05106 27-788).
T2 construct: whole, on cells; Endogenous protein on human cells; In the immunoprecipitation it was solubilised from biotinylated THP-1 cell surfaces with NP-40 and came down together with CD51; also called integrin β3-subunit; integrin β3 chain
T2 sequence (P05106 27-788): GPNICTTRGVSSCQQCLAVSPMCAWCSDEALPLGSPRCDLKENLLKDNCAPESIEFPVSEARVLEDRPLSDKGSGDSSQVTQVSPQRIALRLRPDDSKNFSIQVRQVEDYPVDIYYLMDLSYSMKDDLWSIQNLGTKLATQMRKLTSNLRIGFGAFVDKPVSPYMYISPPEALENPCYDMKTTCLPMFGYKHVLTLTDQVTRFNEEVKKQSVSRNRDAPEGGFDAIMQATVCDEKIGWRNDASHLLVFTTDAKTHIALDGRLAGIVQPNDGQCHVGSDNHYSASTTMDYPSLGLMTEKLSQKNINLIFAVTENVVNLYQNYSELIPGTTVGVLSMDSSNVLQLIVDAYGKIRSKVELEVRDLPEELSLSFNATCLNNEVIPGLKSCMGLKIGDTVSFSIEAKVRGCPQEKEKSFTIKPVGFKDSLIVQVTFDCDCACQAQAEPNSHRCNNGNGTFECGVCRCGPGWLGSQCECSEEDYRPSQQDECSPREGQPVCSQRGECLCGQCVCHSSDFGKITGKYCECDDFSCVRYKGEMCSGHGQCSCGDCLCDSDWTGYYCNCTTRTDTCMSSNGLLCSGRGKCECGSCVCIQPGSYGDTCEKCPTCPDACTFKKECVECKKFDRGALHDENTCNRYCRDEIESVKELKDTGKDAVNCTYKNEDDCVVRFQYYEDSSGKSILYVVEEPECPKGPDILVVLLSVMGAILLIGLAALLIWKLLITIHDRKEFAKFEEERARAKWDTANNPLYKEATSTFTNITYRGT
The assay can be described thus: flow cytometry on human cultured cells, 1 µg/ml antibody, FITC anti-mouse IgG secondary; Molt-4 and HUVEC also reactive; antigen later identified as CD61. As to the method: To identify the antigen of antibody #33, its reactivity to various human cultured cells was examined by flow cytometry. THP-1 activated macrophage-like cells, HPB-ALL, Jurkat, PM-1, Molt-4, KM-3, HL-60, K562, THP-1, U937, 293T, and HUVEC were used as these cells. The THP-1 activated macrophage-like cells were prepared by culturing and differentiating for two days the THP-1 human monocyte-like cell line in RPMI (Sigma) including Streptomycin/Penicillin (Gibco BRL) and 10% FCS (Equitech) into which phorbol ester (PMA) (Sigma) has been added to a final concentration of 5 ng/ml.
Blocking with 1 mg/ml human IgG (Sigma) in FCS was performed for the various human cultured cells (1.0×10⁵ cells) and cells were reacted in a PBS solution comprising 2% FCS (Equitech) antibody #33 at a final concentration of 1 μg/ml at 4° C. for 30 minutes. After washing twice with PBS comprising 2% FCS (Equitech), cells were further reacted with an FITC-labeled anti-mouse IgG secondary antibody (MBL) at 4° C. for 30 minutes. Samples were further washed twice with PBS containing 2% FCS (Equitech) and analyzed with a flow cytometer (ALTRA BC).

T1 sequence (P06756 31-1048): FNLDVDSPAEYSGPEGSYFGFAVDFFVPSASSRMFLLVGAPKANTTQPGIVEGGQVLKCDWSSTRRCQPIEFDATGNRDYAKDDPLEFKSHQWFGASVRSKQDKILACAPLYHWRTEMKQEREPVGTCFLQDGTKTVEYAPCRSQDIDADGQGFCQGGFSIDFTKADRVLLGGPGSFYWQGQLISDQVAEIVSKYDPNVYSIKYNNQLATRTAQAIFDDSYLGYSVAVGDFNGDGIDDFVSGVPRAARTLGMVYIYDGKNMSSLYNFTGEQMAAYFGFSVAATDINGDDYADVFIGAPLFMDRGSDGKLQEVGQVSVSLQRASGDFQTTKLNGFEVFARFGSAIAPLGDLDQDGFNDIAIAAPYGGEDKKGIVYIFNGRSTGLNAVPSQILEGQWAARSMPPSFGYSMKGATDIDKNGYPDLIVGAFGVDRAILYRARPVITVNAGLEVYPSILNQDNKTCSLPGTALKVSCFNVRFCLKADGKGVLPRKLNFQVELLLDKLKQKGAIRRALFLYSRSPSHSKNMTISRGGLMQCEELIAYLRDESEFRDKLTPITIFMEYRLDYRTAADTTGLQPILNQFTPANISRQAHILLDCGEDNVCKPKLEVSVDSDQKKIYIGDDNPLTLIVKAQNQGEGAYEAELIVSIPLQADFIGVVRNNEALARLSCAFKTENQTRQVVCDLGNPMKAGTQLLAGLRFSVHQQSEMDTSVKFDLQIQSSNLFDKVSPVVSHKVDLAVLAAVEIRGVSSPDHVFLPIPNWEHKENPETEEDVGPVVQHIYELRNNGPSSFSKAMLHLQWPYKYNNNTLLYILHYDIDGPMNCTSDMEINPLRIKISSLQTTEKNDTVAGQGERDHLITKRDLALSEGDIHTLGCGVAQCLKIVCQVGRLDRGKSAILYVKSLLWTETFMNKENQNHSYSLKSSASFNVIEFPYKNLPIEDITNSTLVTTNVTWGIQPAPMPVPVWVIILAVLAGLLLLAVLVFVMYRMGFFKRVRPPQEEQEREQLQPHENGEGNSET

B1: antibody #33 (antibody, IgG2a, V domains shown)
VH: EVQLLQSGPELVKPGASMKISCKASGYSFTGYTMNWVKQSHGKNLEWIGLINPYSGVTTYNQRFKGKATLTVDKSSSTAYMELLSLTSEDSAVYYCATRGALGQAYYFDYWGQGTTLTVSS
VL: QIVLTQSPVIMSASPGERVTLTCSASSSVNYMHWYQQKSGTSPKRWIYDTSKLASGVPPRFSGSGFGTSYSLTITNMEAEDAATYYCQQWSSKPPTFGFGTKLELQR
notes: also called monoclonal antibody #33; mouse anti-human CD61 antibody
For B1, the binding result with CD51 is reported as “no binding”; with human CD61, “binds”.
